Assay results taken from PMC4414373, “Relevance of glycosylation of S-layer proteins for cell surface properties” (Acta Biomaterialia, 2015).

Target: the molecule itself
Test: atomic force microscopy; S-layer (glyco)protein at 50 ug/mL recrystallized on gold-coated SPR and QCM-D sensor surfaces; lattice imaged in contact mode in a liquid cell under 100 mM NaCl

B1: recombinant S-layer protein rSgsE(131-903), 130 amino acid N-terminal truncation of SgsE (domain or fragment, UniProt Q8VTF1 131-903, looked up)
chain: ATKLDKMRQELKAAVDAKDLKKAEELYHKISYELKTRTVILDRVYGQSTRELLRSTFKADAQALRDSLIYDITVAMKAREAQDAVKAGNLDKAKAALDQVNQYVSKVTDAFKAELQKAAQDAKAAYEAALPPKVESVTAVNAKTLEIKFNKAVDAATVIDNKGTSDTSDDVVKATAITLKAIDDQVPVSTVKASLSDDKKTLKLVVDGAQFFTKRYVVDIKNVKTLDGKDVPAYTTTIDTTDSVRPSVLSFSYADNGLTLKVKFSEPLASVGTVKLYDGTTEISVSPKFTAGDDEMTINLASSSVPVNKDLTLKIFGAVDYNGNVINPNPAELTVKKTTVDITKPVVQSIEAVNTKTVKVTFSEKLLSAPTIKIGGQTASVSVDSTGLVYTATLASALSKGVYAVEVSDYKDLAGNSGDAYTKVVQLKADNTAPKFVSSQVVKINGVEHLVLTFDEEVTTGSNITVVQSSDKYIDENNVLKAVGADLKTTSDNFKLYLPTDGKSKSVALNISSLPKGTYTVTLPNGLVSDLADNPYAERKQITFVRGSDSLTTKPALDKDYDSNGVKADNNNELVFAFTQNLDASALNLSNFNINGLTVTKAVFDGDTKHIRVTLAPGANTWTGTHVITISNIKNTSGLVMDTVTVNEYMKENVAPTFTATLTSADVIRVDFSEPVANATISRALSANNFIVKVDGNVVTVSNVYEDNNATNLVQGSKGYKTVYLKLQSPVTDLSKPITLSATDIVDVNQTGAITDNNVVGNNVSATVVNVAK
notes: S-layer protein SgsE of Geobacillus stearothermophilus NRS 2004/3a, residues 131-903; non-glycosylated; calculated molecular weight 82,800 Da; also called recombinantly produced non-glycosylated form of SgsE; source: E. coli BL21 Star (DE3), purified
binding result: binds
